# Experimental data from patent US5385885A, “Inhibition of smooth muscle cell proliferation by antistasin and tick anticoagulant peptide” (priority 1991, dated 1995).
# Experiments:
# [1] = system: rat aortic smooth muscle cells; experiment: Mitogenic activity of blood coagulation factors on smooth muscle cells (3H-thymidine incorporation); type: cell-based, Wistar rats; settings: 24 h
# Protocol: Primary smooth muscle cell cultures were prepared from the thoracic and abdominal aorta of 2-3 month old Wistar rats essentially using the procedure of Reilly, C. […] After removing as much fat and adherent adventitia as possible with scissors and forceps, the tissue was finely minced, enzymatically dissociated with successive 37° C. incubations in HBSS containing collagenase (Sigma, 0.5 mg/ml for 15 min.), then elastase (Sigma, 0.125 mg/ml for 30 min.) and again collagenase (60 min.). […] Cells were grown in Dulbecco's Minimal Essential Medium (DMEM) containing 10% fetal bovine serum (FBS) with antibiotics. […] Using a monoclonal antibody to alpha actin (Sigma Chemical Company, St. Louis, Mo.), about 60-80% (preparation dependent) of these confluent cells stained positive for this smooth muscle cell marker. After 10 days in culture, the cells were dissociated with trypsinethylene diamine tetraacetate (EDTA), split 1:10 and subcultured in the above medium. At confluence the cells were transferred to DMEM containing 0.1 % FBS for a 24 hour period before using them for assay. All smooth muscle cells used in these studies were from passages 1-4.
# The prepared rat smooth muscle cells were seeded in Falcon 24 multiwell plates (10^5 cells/well) and cultured at 37° C., in a 5% CO2 atmosphere in 1 ml DMEM containing 10% FBS. […] At the end of the incubation, the cultures were washed twice with DMEM and pulsed for two hours in ^3 H-thymidine (1 μCi/ml) in DMEM containing 0.1% BSA. The cells were washed twice with cold phosphate buffered saline (PBS), treated twice with 5% trichloroacetic acid (TCA) for 5 min., dissolved with 0.25N NaOH (0.4 ml) incubated at 37° C. for 60 min., mixed with 5 ml Ecolume (ICN Biomedicals, Costa Mesa, Calif.), and their radioactivity determined in a scintillation counter. All assays were in triplicate. Error bars represent the standard error of the mean (S.E.M. with n=6 or more experiments). Smooth muscle cell mitogenic activity produced by exogenous agents is expressed as % relative mitogenic activity which is defined as: [formula] […]
# [2] = system: rat aortic smooth muscle cells; experiment: Comparison of 3H-thymidine incorporation and cell proliferation in rat aortic smooth muscle cell cultures; type: cell-based; settings: 10 mM factor, 36 hours treatment
# Protocol: Rat smooth muscle cells were incubated with different blood coagulation factors to determine ^3 H-thymidine incorporation and effect cell number. […] At the end of the incubation, half of the groups were pulsed with ^3 H-thymidine for two hours while their identically treated counterparts were dissociated with trypsin and the cells (smooth muscle cells on the basis of a reddish-brown staining pattern with Masson's trichome) were counted. Although there was not a direct correspondence between the per cent increase in thymidine incorporation and cell number, the increase in DNA synthesis correlated well with an increase in cell number. bovine factor Xa increased cell proliferation in a dose dependent manner. 10 mM Protein S induced greater cell proliferation than 50 mM bovine factor Xa.
# [3] = system: human venous endothelial cells; experiment: Release of mitogens from endothelial cells stimulated with factor Xa; conditioned media tested for mitogenic activity on 3T3 cells; type: cell-based; settings: for Mitogenic units of EC conditioned media: 1 unit = activity induced by 2 ng/ml PDGF, FXa 1 nM, ATS 5 nM, PDGF 2 ng/ml, 16 h
# Protocol: Confluent primary cultures or subcultures (passages 1 and 2) of human venous endothelial cells (EC) were cultured in serum-free Dulbecco's Minimal Essential Medium (DMEM)+0.1% bovine serum albumin (BSA) in the presence of human or bovine factor Xa(1 nM) (Sigma Chemical Co., St. Louis, Mo.), antistasin (ATS) (0.5-5.0 nM), or both. Control cultures were untreated or received 2 ng/ml platelet-derived growth factor (PDGF) (Sigma Chemical Co., St. Louis, Mo.). After 16 hours incubation at 37° C., the conditioned media (CM) from the test and control cell cultures were collected and tested for mitogenic activity (MIT) using confluent NIH 3T3 cells (CCL 163, American Type Culture Collection, Rockville, Md.).
# Primary cultures of EC derived from umbilical cord veins were prepared and grown according to a protocol provided to by Dr. Gwendolyn Stewart (Temple University Thrombosis Center, Phila., Pa.). After washing the lumen of the vein twice with DMEM, EC were dissociated with a solution containing 0.05% trypsin and 0.1% collagenase. Thirty minutes later, the venous content and the perfused DMEM (35 ml) was collected into a fifty ml centrifuge tube containing 3.5 ml of bovine serum and the mixture spun at 900 rpm for 10 minutes. The supernate was discarded and the cell pellet resuspended in 3.0 ml DMEM containing 20% fetal bovine serum (FBS) (heat inactivated at 56° C. for 30 minutes), 90 μg heparin per ml, 5 μg fibronectin per ml, and 60 μg endothelial growth factor per ml (cDMEM), and seeded into 35 mm tissue culture dishes. After 24 hours of incubation at 37 °C, 5% CO2, the culture was washed 3-4 times with DMEM and incubated 2-4 days until the cells were confluent. The monolayers were washed with phosphate buffered saline (PBS) and cultured in DMEM with 0.1% BSA in the presence and absence of 1 nM factor Xa, 5 nM antistasin, or a mixture of both. As positive and negative controls, separated monolayers were incubated with the medium plus 2 ng/ml PDGF or with the medium alone. After 16 hours of incubation at 37° C., conditioned media (CM) were collected, centrifuged at 4000×g for 10 minutes, and the supernate was collected and stored at 4° C. until use. The mitogenic activity of the CM was tested by measuring the incorporation of [^3 H] thymidine into cultures of Balb 3T3 cells. For this purpose, wells were seeded with 2×10^4 3T3 cells suspended in 1 ml DMEM with 10% FBS. Once confluent (5-7 days of culture), CM were added and cells incubated for 18 hours at 37° C. after which cultures were washed with warm DMEM, tritiated thymidine added (1 μCi/ml) and cells incubated for 4 hours at 37° C. After removing the medium, the culture was washed twice with cold 5% trichloroacetic acid (TCA), and lysed with 0.8 ml 0.25M NaOH. The lysate was transferred to vials with scintillation fluid and radioactivity monitored in a beta radiation counter.
# One unit of mitogenic activity is defined as the mitogenic activity induced by 2 ng/ml PDGF. Each assay was performed in triplicate and the standard deviation was less than 10%.
# 3T3 cells = experiment: Direct antistasin treatment of 3T3 cells, proliferation; type: cell-based
# smooth muscle cells [4] = experiment: Effect of antistasin and tick anticoagulant peptide on factor Xa induced mitogenesis of smooth muscle cells; type: cell-based, rat; settings: FIG. 2
# Protocol: Primary smooth muscle cell cultures were prepared from the thoracic and abdominal aorta of 2-3 month old Wistar rats essentially using the procedure of Reilly, C. F. (1990) J. Cell Physiol. 142,342 (1990). After removing as much fat and adherent adventitia as possible with scissors and forceps, the tissue was finely minced, enzymatically dissociated with successive 37° C. incubations in HBSS containing collagenase (Sigma, 0.5 mg/ml for 15 min.), then elastase (Sigma, 0.125 mg/ml for 30 min.) and again collagenase (60 min.). […] Cells were grown in Dulbecco's Minimal Essential Medium (DMEM) containing 10% fetal bovine serum (FBS) with antibiotics. […] Using a monoclonal antibody to alpha actin (Sigma Chemical Company, St. Louis, Mo.), about 60-80% (preparation dependent) of these confluent cells stained positive for this smooth muscle cell marker. After 10 days in culture, the cells were dissociated with trypsinethylene diamine tetraacetate (EDTA), split 1:10 and subcultured in the above medium. At confluence the cells were transferred to DMEM containing 0.1 % FBS for a 24 hour period before using them for assay. […]
# (§1) The prepared rat smooth muscle cells were seeded in Falcon 24 multiwell plates (10^5 cells/well) and cultured at 37° C., in a 5% CO2 atmosphere in 1 ml DMEM containing 10% FBS. […] The cells were washed twice with cold phosphate buffered saline (PBS), treated twice with 5% trichloroacetic acid (TCA) for 5 min., dissolved with 0.25N NaOH (0.4 ml) incubated at 37° C. for 60 min., mixed with 5 ml Ecolume (ICN Biomedicals, Costa Mesa, Calif.), and their radioactivity determined in a scintillation counter. […] Smooth muscle cell mitogenic activity produced by exogenous agents is expressed as % relative mitogenic activity which is defined as: [formula] […]
# The effects of antistasin and tick anticoagulant peptide on factor Xa induced mitogenesis of smooth muscle cells were tested using the method shown in Example 4. […] At the end of the 24 hour incubation, ^3 H-thymidine incorporation into DNA was monitored and smooth muscle cell mitogenic activity was assessed as described in Example 4.
# smooth muscle cells [5] = experiment: Effect of factor Xa inhibitors on human protein S and bovine factor X induced smooth muscle cell mitogenesis; type: cell-based, rat; settings: FIG. 3
# Protocol: Primary smooth muscle cell cultures were prepared from the thoracic and abdominal aorta of 2-3 month old Wistar rats essentially using the procedure of Reilly, C. F. (1990) J. Cell Physiol. 142,342 (1990). After removing as much fat and adherent adventitia as possible with scissors and forceps, the tissue was finely minced, enzymatically dissociated with successive 37° C. incubations in HBSS containing collagenase (Sigma, 0.5 mg/ml for 15 min.), then elastase (Sigma, 0.125 mg/ml for 30 min.) and again collagenase (60 min.). […] Cells were grown in Dulbecco's Minimal Essential Medium (DMEM) containing 10% fetal bovine serum (FBS) with antibiotics. […]
# as §1
# [6] = FIG. 1, 10 nM coagulation factor
molecule,measurement,setting,value
"protein S: human protein S, coagulation cascade factor (Enzyme Res. Labs) (protein, UniProt P07225 42-676, looked up) Vitamin K-dependent protein S: ANSLLEETKQGNLERECIEELCNKEEAREVFENDPETDYFYPKYLVCLRSFQTGLFTAARQSTNAYPDLRSCVNAIPDQCSPLPCNEDGYMSCKDGKASFTCTCKPGWQGEKCEFDINECKDPSNINGGCSQICDNTPGSYHCSCKNGFVMLSNKKDCKDVDECSLKPSICGTAVCKNIPGDFECECPEGYRYNLKSKSCEDIDECSENMCAQLCVNYPGGYTCYCDGKKGFKLAQDQKSCEVVSVCLPLNLDTKYELLYLAEQFAGVVLYLKFRLPEISRFSAEFDFRTYDSEGVILYAESIDHSAWLLIALRGGKIEVQLKNEHTSKITTGGDVINNGLWNMVSVEELEHSISIKIAKEAVMDINKPGPLFKPENGLLETKVYFAGFPRKVESELIKPINPRLDGCIRSWNLMKQGASGIKEIIQEKQNKHCLVTVEKGSYYPGSGIAQFHIDYNNVSSAEGWHVNVTLNIRPSTGTGVMLALVSGNNTVPFAVSLVDSTSEKSQDILLSVENTVIYRIQALSLCSDQQSHLEFRVNRNNLELSTPLKIETISHEDLQRQLAVLDKAMKAKVATYLGGLPDVPFSATPVNAFYNGCMEVNINGVQLDLDEAISKHNDIRAHSCPSVWKKTKNS",% relative mitogenic activity above control,[1]; [6],about 122%
same,SMC Number,[2],6.5 × 10^5
same,CPM Incorporated (3H-thymidine),[2]; 2 h pulse,"30,074 ± 2,837 CPM"
"Factor IX: bovine coagulation factor IX (protein, UniProt P00741 26-462, looked up) Coagulation factor IX: AECTVFLDRENATKILHRPKRYNSGKLEEFVRGNLERECKEEKCSFEEAREVFENTEKTTEFWKQYVDGDQCESNPCLNGGMCKDDINSYECWCQAGFEGTNCELDATCSIKNGRCKQFCKRDTDNKVVCSCTDGYRLAEDQKSCEPAVPFPCGRVSVSHISKKLTRAETIFSNTNYENSSEAEIIWDNVTQSNQSFDEFSRVVGGEDAERGQFPWQVLLHGEIAAFCGGSIVNEKWVVTAAHCIKPGVKITVVAGEHNTEKPEPTEQKRNVIRAIPYHSYNASINKYSHDIALLELDEPLELNSYVTPICIADRDYTNIFLKFGYGYVSGWGKVFNRGRSASILQYLKVPLVDRATCLRSTKFSIYSHMFCAGYHEGGKDSCQGDSGGPHVTEVEGTSFLTGIISWGEECAMKGKYGIYTKVSRYVNWIKEKTKLT",% relative mitogenic activity above control,[1]; [6],only weakly mitogenic
"antistasin (protein, UniProt P15358 18-136, looked up, 119-amino acid protein isolated from the salivary glands of the Mexican leech Haementeria officinalis) Antistasin: QGPFGPGCEEAGCPEGSACNIITDRCTCSGVRCRMHCPHGFQRSRYGCEFCKCRLEPMKATCDISECPEGMMCSRLTNKCDCKIDINCRKTCPNGLKRDKLGCEYCECRPKRKLIPRLS",Mitogenic units of EC conditioned media,[3]; EXP 1,0.74 mitogenic units
same,Mitogenic units of EC conditioned media,[3]; EXP 2,0.42 mitogenic units
same,Mitogenic units of EC conditioned media,[3]; EXP 3,0.70 mitogenic units
same,Mitogenic units of EC conditioned media,[3]; EXP 4,0.36 mitogenic units
same,Release of mitogens from endothelial cells,[3]; antistasin 0.5-10 nM,blocks the release of mitogens
same,Effect on proliferation of 3T3 cells,3T3 cells,no significant effect
same,Relative mitogenic activity above control,smooth muscle cells [4]; 10 nM fXa and 5 nM antistasin,about 23%
same,Relative mitogenic activity above control,smooth muscle cells [4]; 10 nM fXa and 10-20 nM antistasin,about 2%
same,Relative mitogenic activity above control,smooth muscle cells [4]; 10 nM fXa with 40-50 nM antistasin,near zero
same,Inhibition of relative mitogenic activity of bovine factor X,smooth muscle cells [5]; 10 nM bovine factor X with 50 nM antistasin,not significantly inhibited
same,Inhibition of relative mitogenic activity of protein S,smooth muscle cells [5]; protein S with 50 nM antistasin,abolished
"platelet derived growth factor BB: recombinant platelet-derived growth factor-BB, a good mitogen for smooth muscle cells (protein, UniProt P01127 82-190, looked up, homodimer, recombinant platelet-derived growth factor-BB, a good mitogen for smooth muscle cells) Platelet-derived growth …: SLGSLTIAEPAMIAECKTRTEVFEISRRLIDRTNANFLVWPPCVEVQRCSGCCNNRNVQCRPTQVQLRPVQVRKIEIVRKKPIFKKATVTLEDHLACKCETVAAARPVT",% relative mitogenic activity above control,"[1]; FIG. 1, 0.1 nM PDGF-BB",about 63%
